Measured values from article PMC9482650, “Quantitative fragmentomics allow affinity mapping of interactomes” (Nature Communications, 2022).

T1: SHANK2, Q9UPX8
T1 sequence (Q9UPX8 621-730, limits assumed, looked up): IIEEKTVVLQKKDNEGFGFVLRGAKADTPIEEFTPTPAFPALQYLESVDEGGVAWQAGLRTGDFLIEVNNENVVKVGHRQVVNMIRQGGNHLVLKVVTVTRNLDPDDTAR

T2: MLLT4, P55196
T2 sequence (P55196 1002-1103, limits assumed, looked up): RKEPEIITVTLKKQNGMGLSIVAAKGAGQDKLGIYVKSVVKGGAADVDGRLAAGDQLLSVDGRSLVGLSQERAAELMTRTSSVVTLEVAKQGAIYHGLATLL

T3: PDZD4, Q76G19
T3 sequence (Q76G19 125-224, limits assumed, looked up): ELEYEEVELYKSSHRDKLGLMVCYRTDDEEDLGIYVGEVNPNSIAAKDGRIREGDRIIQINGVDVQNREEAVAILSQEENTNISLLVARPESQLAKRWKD

T4: PREX2_2, Q70Z35
T4 sequence (Q70Z35 672-764, limits assumed, looked up): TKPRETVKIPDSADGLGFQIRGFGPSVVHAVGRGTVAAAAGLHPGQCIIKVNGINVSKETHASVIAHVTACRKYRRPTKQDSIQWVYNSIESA

T5: MPP1, Q00013
T5 sequence (Q00013 66-162, limits assumed, looked up): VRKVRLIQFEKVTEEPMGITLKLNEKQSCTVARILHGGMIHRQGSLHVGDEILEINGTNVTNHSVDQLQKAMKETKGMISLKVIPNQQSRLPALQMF

T6: PDZD2_4, O15018
T6 sequence (O15018 723-823, limits assumed, looked up): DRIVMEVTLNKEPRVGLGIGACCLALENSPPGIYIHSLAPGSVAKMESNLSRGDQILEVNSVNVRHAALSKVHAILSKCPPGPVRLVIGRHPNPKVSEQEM

T7: LNX2_4, Q8N448
T7 sequence (Q8N448 595-690, limits assumed, looked up): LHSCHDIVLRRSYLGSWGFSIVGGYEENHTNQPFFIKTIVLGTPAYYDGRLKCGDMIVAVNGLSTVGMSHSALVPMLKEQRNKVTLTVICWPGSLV

T8: SHANK3, Q9BYB0
T8 sequence (Q9BYB0 641-750, limits assumed, looked up): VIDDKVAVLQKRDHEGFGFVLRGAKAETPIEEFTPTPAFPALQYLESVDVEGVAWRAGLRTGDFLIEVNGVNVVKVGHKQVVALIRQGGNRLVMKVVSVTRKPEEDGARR

T9: PARD6B, Q9BYG5
T9 sequence (Q9BYG5 152-260, limits assumed, looked up): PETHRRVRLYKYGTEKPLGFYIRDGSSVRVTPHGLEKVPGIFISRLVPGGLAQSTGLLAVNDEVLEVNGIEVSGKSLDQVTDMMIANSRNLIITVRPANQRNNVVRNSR

T10: MPDZ_6, O75970
T10 sequence (O75970 1003-1099, limits assumed, looked up): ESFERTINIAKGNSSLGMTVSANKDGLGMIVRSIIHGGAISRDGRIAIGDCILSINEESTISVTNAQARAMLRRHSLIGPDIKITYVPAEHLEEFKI

T11: PDZD8, Q8NEN9
T11 sequence (Q8NEN9 361-459, limits assumed, looked up): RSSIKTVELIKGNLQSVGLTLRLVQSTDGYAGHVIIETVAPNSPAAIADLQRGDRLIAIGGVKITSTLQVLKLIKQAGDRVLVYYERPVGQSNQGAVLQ

T12: PTPN4, P29074
T12 sequence (P29074 512-599, limits assumed, looked up): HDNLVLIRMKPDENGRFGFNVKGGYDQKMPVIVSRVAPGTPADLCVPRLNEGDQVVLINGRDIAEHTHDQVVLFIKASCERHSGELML

T13: NHERF1_1, O14745
T13 sequence (O14745 9-104, limits assumed, looked up): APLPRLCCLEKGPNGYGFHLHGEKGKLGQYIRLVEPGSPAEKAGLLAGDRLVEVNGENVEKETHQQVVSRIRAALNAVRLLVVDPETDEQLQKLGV

T14: GRIP1_1, Q9Y3R0
T14 sequence (Q9Y3R0 48-146, limits assumed, looked up): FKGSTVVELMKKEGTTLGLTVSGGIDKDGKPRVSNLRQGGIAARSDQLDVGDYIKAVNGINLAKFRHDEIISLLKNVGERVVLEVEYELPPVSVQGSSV

T15: DVL1, O14640
T15 sequence (O14640 246-333, limits assumed, looked up): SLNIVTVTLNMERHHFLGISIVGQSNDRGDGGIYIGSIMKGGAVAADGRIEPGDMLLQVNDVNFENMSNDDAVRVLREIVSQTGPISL


Key:
Assay in all cases: holdup assay
Parameters in all cases: key: below the threshold = too weak to quantify, mostly under pKd 3.1 to 4
Conditions in all cases: plain residues with an end cap or a label only (N-terminal biotin on a linker: ttds)
RIMS1, Q86UR5 = target: RIMS1, Q86UR5
RIMS1, Q86UR5, sequence (Q86UR5 584-692): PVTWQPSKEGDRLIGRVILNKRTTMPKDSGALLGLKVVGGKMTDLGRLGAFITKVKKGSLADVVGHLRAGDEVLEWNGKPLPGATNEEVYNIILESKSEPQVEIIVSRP

IL16_2, Q14005 = target: IL16_2, Q14005
IL16_2, Q14005, sequence (Q14005 350-450): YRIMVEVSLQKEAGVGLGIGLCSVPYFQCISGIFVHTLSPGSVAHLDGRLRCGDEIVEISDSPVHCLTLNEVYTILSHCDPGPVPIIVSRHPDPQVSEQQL

SHANK2, Q9UPX8 = target: T1, SHANK2, Q9UPX8
MAGI1_4, Q96QZ7 = target: MAGI1_4, Q96QZ7
MAGI1_4, Q96QZ7, sequence (Q96QZ7 other isoform, or with tags, fused parts or gaps): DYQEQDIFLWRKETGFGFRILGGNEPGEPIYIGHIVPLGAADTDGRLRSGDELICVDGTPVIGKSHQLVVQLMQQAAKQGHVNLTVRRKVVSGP

TJP1_1, Q07157 = target: TJP1_1, Q07157
TJP1_1, Q07157, sequence (Q07157 18-120): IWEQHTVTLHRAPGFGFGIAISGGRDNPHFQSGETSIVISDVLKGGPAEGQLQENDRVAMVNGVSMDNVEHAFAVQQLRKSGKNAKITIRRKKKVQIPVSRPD

PDZD9, Q8IXQ8 = target: PDZD9, Q8IXQ8
PDZD9, Q8IXQ8, sequence (Q8IXQ8 23-120): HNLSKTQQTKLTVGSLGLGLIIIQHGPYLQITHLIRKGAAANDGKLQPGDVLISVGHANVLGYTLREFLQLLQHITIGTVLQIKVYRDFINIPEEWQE

MLLT4, P55196 = target: T2, MLLT4, P55196
PREX1_1, Q8TCU6 = target: PREX1_1, Q8TCU6
PREX1_1, Q8TCU6, sequence (Q8TCU6 608-718): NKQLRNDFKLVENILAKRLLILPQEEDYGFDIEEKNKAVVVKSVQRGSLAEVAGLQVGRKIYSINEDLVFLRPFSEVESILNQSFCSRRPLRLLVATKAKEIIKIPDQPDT

SCRIB_4, Q14160 = target: SCRIB_4, Q14160
SCRIB_4, Q14160, sequence (Q14160 1095-1204): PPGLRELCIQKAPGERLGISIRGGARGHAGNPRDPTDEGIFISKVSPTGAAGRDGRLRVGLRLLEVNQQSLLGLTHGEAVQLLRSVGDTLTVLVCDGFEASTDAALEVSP

PDZD4, Q76G19 = target: T3, PDZD4, Q76G19
PREX2_2, Q70Z35 = target: T4, PREX2_2, Q70Z35
MPP1, Q00013 = target: T5, MPP1, Q00013
PDZD2_4, O15018 = target: T6, PDZD2_4, O15018
LNX2_4, Q8N448 = target: T7, LNX2_4, Q8N448
SHANK3, Q9BYB0 = target: T8, SHANK3, Q9BYB0
PARD6B, Q9BYG5 = target: T9, PARD6B, Q9BYG5
MPDZ_6, O75970 = target: T10, MPDZ_6, O75970
PDZD8, Q8NEN9 = target: T11, PDZD8, Q8NEN9
PTPN4, P29074 = target: T12, PTPN4, P29074
NHERF1_1, O14745 = target: T13, NHERF1_1, O14745
GRIP1_1, Q9Y3R0 = target: T14, GRIP1_1, Q9Y3R0
DVL1, O14640 = target: T15, DVL1, O14640

Row | Binder | pKd (RIMS1, Q86UR5) | pKd (IL16_2, Q14005) | pKd (SHANK2, Q9UPX8) | pKd (MAGI1_4, Q96QZ7) | pKd (TJP1_1, Q07157) | pKd (PDZD9, Q8IXQ8) | pKd (MLLT4, P55196) | pKd (PREX1_1, Q8TCU6) | pKd (SCRIB_4, Q14160) | pKd (PDZD4, Q76G19) | pKd (PREX2_2, Q70Z35) | pKd (MPP1, Q00013) | pKd (PDZD2_4, O15018) | pKd (LNX2_4, Q8N448) | pKd (SHANK3, Q9BYB0) | pKd (PARD6B, Q9BYG5) | pKd (MPDZ_6, O75970) | pKd (PDZD8, Q8NEN9) | pKd (PTPN4, P29074) | pKd (NHERF1_1, O14745) | also measured
1 | DPLTPSRSQL [DGKK, Q5KSL6] | below the threshold | below the threshold | below the threshold | below the threshold | below the threshold | below the threshold | below the threshold | below the threshold | below the threshold | below the threshold | below the threshold | below the threshold | below the threshold | below the threshold | below the threshold | below the threshold | below the threshold | below the threshold | below the threshold | below the threshold | pKd (GRIP1_1, Q9Y3R0): below the threshold; pKd (DVL1, O14640): below the threshold
2 | HIVEALETDV [PBK, Q96KB5] | below the threshold | below the threshold | below the threshold | 4.34 | below the threshold | below the threshold | below the threshold | below the threshold | below the threshold | below the threshold | below the threshold | below the threshold | below the threshold | below the threshold | below the threshold | below the threshold | below the threshold | below the threshold | below the threshold | below the threshold | pKd (GRIP1_1, Q9Y3R0): below the threshold; pKd (DVL1, O14640): below the threshold
3 | SEKHFRETEV [HTLV1-TAX1, P03409] | below the threshold | below the threshold | below the threshold | 4.28 | below the threshold | below the threshold | 4.08 | below the threshold | 4.43 | below the threshold | below the threshold | below the threshold | below the threshold | below the threshold | below the threshold | below the threshold | below the threshold | below the threshold | 4.77 | below the threshold | pKd (GRIP1_1, Q9Y3R0): below the threshold; pKd (DVL1, O14640): below the threshold
